From patent US10829540

Biological target: human P2X4 (human) (UniProt Q99571)
Test: cell-based or functional assay

Sequence of human P2X4 (human) (Q99571 whole entry): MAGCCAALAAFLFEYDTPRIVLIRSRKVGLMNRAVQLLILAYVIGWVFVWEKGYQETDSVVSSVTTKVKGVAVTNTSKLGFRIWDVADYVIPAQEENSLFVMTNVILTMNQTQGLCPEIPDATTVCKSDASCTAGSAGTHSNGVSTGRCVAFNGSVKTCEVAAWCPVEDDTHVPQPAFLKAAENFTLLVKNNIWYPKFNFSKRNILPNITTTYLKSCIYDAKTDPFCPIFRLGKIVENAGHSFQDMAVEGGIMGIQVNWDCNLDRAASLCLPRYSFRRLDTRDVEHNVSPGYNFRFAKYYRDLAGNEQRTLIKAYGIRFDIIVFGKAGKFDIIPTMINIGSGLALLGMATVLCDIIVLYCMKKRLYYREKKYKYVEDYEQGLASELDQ

Fraction of control at human P2X4 (Exp 1), mean, at 7.8 µM; QPatch electrophysiology, ATP-evoked currents (fraction of control): 1.4
Fraction of control at human P2X4 (Exp 2), mean, at 7.8 µM; QPatch electrophysiology, ATP-evoked currents (fraction of control): 1.36
Substance: isotype control IgG NIP 228 (antibody)
